What was measured:
[1] = test system: T1, Lys(Dnp)-ATNATX4X3PRIVGG-Lys(Abz), X4 = D, X3 = Y
T1 sequence: KATNATDYPRIVGGK

[2] = test system: T2, Lys(Dnp)-ATNATX4X3PRIVGG-Lys(Abz), X4 = E, X3 = F
T2 sequence: KATNATEFPRIVGGK

[3] = test system: T3, Lys(Dnp)-ATNATX4X3PRIVGG-Lys(Abz), X4 = E, X3 = K
T3 sequence: KATNATEKPRIVGGK

[4] = test system: T4, Lys(Dnp)-ATNATX4X3PRIVGG-Lys(Abz), X4 = E, X3 = T
T4 sequence: KATNATETPRIVGGK

[5] = test system: T5, Lys(Dnp)-ATNATX4X3PRIVGG-Lys(Abz), X4 = F, X3 = D
T5 sequence: KATNATFDPRIVGGK

[6] = test system: T6, Lys(Dnp)-ATNATX4X3PRIVGG-Lys(Abz), X4 = G, X3 = H
T6 sequence: KATNATGHPRIVGGK

[7] = test system: T7, Lys(Dnp)-ATNATX4X3PRIVGG-Lys(Abz), X4 = G, X3 = I
T7 sequence: KATNATGIPRIVGGK

[8] = test system: T8, Lys(Dnp)-ATNATX4X3PRIVGG-Lys(Abz), X4 = G, X3 = K
T8 sequence: KATNATGKPRIVGGK

[9] = test system: T9, Lys(Dnp)-ATNATX4X3PRIVGG-Lys(Abz), X4 = G, X3 = M
T9 sequence: KATNATGMPRIVGGK

[10] = test system: T10, Lys(Dnp)-ATNATX4X3PRIVGG-Lys(Abz), X4 = G, X3 = Q
T10 sequence: KATNATGQPRIVGGK

[11] = test system: T11, Lys(Dnp)-ATNATX4X3PRIVGG-Lys(Abz), X4 = G, X3 = Y
T11 sequence: KATNATGYPRIVGGK

[12] = test system: T12, Lys(Dnp)-ATNATX4X3PRIVGG-Lys(Abz), X4 = H, X3 = F
T12 sequence: KATNATHFPRIVGGK

[13] = test system: T13, Lys(Dnp)-ATNATX4X3PRIVGG-Lys(Abz), X4 = H, X3 = G
T13 sequence: KATNATHGPRIVGGK

[14] = test system: T14, Lys(Dnp)-ATNATX4X3PRIVGG-Lys(Abz), X4 = H, X3 = R
T14 sequence: KATNATHRPRIVGGK

[15] = test system: T15, Lys(Dnp)-ATNATX4X3PRIVGG-Lys(Abz), X4 = H, X3 = T
T15 sequence: KATNATHTPRIVGGK

[16] = test system: T16, Lys(Dnp)-ATNATX4X3PRIVGG-Lys(Abz), X4 = K, X3 = F
T16 sequence: KATNATKFPRIVGGK

[17] = test system: T17, Lys(Dnp)-ATNATX4X3PRIVGG-Lys(Abz), X4 = M, X3 = E
T17 sequence: KATNATMEPRIVGGK

[18] = test system: T18, Lys(Dnp)-ATNATX4X3PRIVGG-Lys(Abz), X4 = N, X3 = H
T18 sequence: KATNATNHPRIVGGK

[19] = test system: T19, Lys(Dnp)-ATNATX4X3PRIVGG-Lys(Abz), X4 = N, X3 = M
T19 sequence: KATNATNMPRIVGGK

[20] = test system: T20, Lys(Dnp)-ATNATX4X3PRIVGG-Lys(Abz), X4 = N, X3 = Q
T20 sequence: KATNATNQPRIVGGK

[21] = test system: T21, Lys(Dnp)-ATNATX4X3PRIVGG-Lys(Abz), X4 = N, X3 = T
T21 sequence: KATNATNTPRIVGGK

[22] = test system: T22, Lys(Dnp)-ATNATX4X3PRIVGG-Lys(Abz), X4 = N, X3 = Y
T22 sequence: KATNATNYPRIVGGK

[23] = test system: T23, Lys(Dnp)-ATNATX4X3PRIVGG-Lys(Abz), X4 = P, X3 = E
T23 sequence: KATNATPEPRIVGGK

[24] = test system: T24, Lys(Dnp)-ATNATX4X3PRIVGG-Lys(Abz), X4 = P, X3 = N
T24 sequence: KATNATPNPRIVGGK

[25] = test system: T25, Lys(Dnp)-ATNATX4X3PRIVGG-Lys(Abz), X4 = Q, X3 = L
T25 sequence: KATNATQLPRIVGGK

[26] = test system: T26, Lys(Dnp)-ATNATX4X3PRIVGG-Lys(Abz), X4 = Q, X3 = V
T26 sequence: KATNATQVPRIVGGK

[27] = test system: T27, Lys(Dnp)-ATNATX4X3PRIVGG-Lys(Abz), X4 = Q, X3 = W
T27 sequence: KATNATQWPRIVGGK

[28] = test system: T28, Lys(Dnp)-ATNATX4X3PRIVGG-Lys(Abz), X4 = S, X3 = A
T28 sequence: KATNATSAPRIVGGK

[29] = test system: T29, Lys(Dnp)-ATNATX4X3PRIVGG-Lys(Abz), X4 = S, X3 = F
T29 sequence: KATNATSFPRIVGGK

[30] = test system: T30, Lys(Dnp)-ATNATX4X3PRIVGG-Lys(Abz), X4 = S, X3 = M
T30 sequence: KATNATSMPRIVGGK

[31] = test system: T31, Lys(Dnp)-ATNATX4X3PRIVGG-Lys(Abz), X4 = S, X3 = S
T31 sequence: KATNATSSPRIVGGK

[32] = test system: T32, Lys(Dnp)-ATNATX4X3PRIVGG-Lys(Abz), X4 = S, X3 = V
T32 sequence: KATNATSVPRIVGGK

[33] = test system: T33, Lys(Dnp)-ATNATX4X3PRIVGG-Lys(Abz), X4 = S, X3 = W
T33 sequence: KATNATSWPRIVGGK

[34] = test system: T34, Lys(Dnp)-ATNATX4X3PRIVGG-Lys(Abz), X4 = T, X3 = E
T34 sequence: KATNATTEPRIVGGK

[35] = test system: T35, Lys(Dnp)-ATNATX4X3PRIVGG-Lys(Abz), X4 = T, X3 = I
T35 sequence: KATNATTIPRIVGGK

[36] = test system: T36, Lys(Dnp)-ATNATX4X3PRIVGG-Lys(Abz), X4 = T, X3 = N
T36 sequence: KATNATTNPRIVGGK

[37] = test system: T37, Lys(Dnp)-ATNATX4X3PRIVGG-Lys(Abz), X4 = V, X3 = D
T37 sequence: KATNATVDPRIVGGK

[38] = test system: T38, Lys(Dnp)-ATNATX4X3PRIVGG-Lys(Abz), X4 = Y, X3 = E
T38 sequence: KATNATYEPRIVGGK

[39] = test system: T39, Lys(Dnp)-ATNATX4X3PRIVGG-Lys(Abz), X4 = Y, X3 = I
T39 sequence: KATNATYIPRIVGGK

Work on Human plasma purified Factor Xa yielded an FXa kcat/KM [1] of 11 M⁻¹ s⁻¹, an FXa kcat/KM [2] of 14 M⁻¹ s⁻¹ and an FXa kcat/KM [3] of 7.9 M⁻¹ s⁻¹. It also gave an FXa kcat/KM [4] of 7.9 M⁻¹ s⁻¹, an FXa kcat/KM [5] of 63 M⁻¹ s⁻¹ and an FXa kcat/KM [6] of 58 M⁻¹ s⁻¹. It also gave an FXa kcat/KM [7] of 88 M⁻¹ s⁻¹, an FXa kcat/KM [8] of 34 M⁻¹ s⁻¹ and an FXa kcat/KM [9] of 52 M⁻¹ s⁻¹. It also gave an FXa kcat/KM [10] of 94 M⁻¹ s⁻¹, an FXa kcat/KM [11] of 34 M⁻¹ s⁻¹ and an FXa kcat/KM [12] of 42 M⁻¹ s⁻¹. It also gave an FXa kcat/KM [13] of 47 M⁻¹ s⁻¹, an FXa kcat/KM [14] of 140 M⁻¹ s⁻¹ and an FXa kcat/KM [15] of 50 M⁻¹ s⁻¹. For the same substance, the FXa kcat/KM [16] was 35 M⁻¹ s⁻¹, the FXa kcat/KM [17] was 600 M⁻¹ s⁻¹ and the FXa kcat/KM [18] was 15 M⁻¹ s⁻¹. For the same substance, the FXa kcat/KM [19] was 27 M⁻¹ s⁻¹, the FXa kcat/KM [20] was 27 M⁻¹ s⁻¹ and the FXa kcat/KM [21] was 15 M⁻¹ s⁻¹. For the same substance, the FXa kcat/KM [22] was 15 M⁻¹ s⁻¹, the FXa kcat/KM [23] was 1000 M⁻¹ s⁻¹ and the FXa kcat/KM [24] was 580 M⁻¹ s⁻¹. The FXa kcat/KM [25] was 480 M⁻¹ s⁻¹, the FXa kcat/KM [26] was 430 M⁻¹ s⁻¹ and the FXa kcat/KM [27] was 1400 M⁻¹ s⁻¹. For the same substance, the FXa kcat/KM [28] was 19 M⁻¹ s⁻¹, the FXa kcat/KM [29] was 17 M⁻¹ s⁻¹ and the FXa kcat/KM [30] was 46 M⁻¹ s⁻¹. The FXa kcat/KM [31] was 40 M⁻¹ s⁻¹, the FXa kcat/KM [32] was 38 M⁻¹ s⁻¹ and the FXa kcat/KM [33] was 43 M⁻¹ s⁻¹. For the same substance, the FXa kcat/KM [34] was 15 M⁻¹ s⁻¹, the FXa kcat/KM [35] was 63 M⁻¹ s⁻¹ and the FXa kcat/KM [36] was 13 M⁻¹ s⁻¹. It also gave an FXa kcat/KM [37] of 70 M⁻¹ s⁻¹, an FXa kcat/KM [38] of 54 M⁻¹ s⁻¹ and an FXa kcat/KM [39] of 66 M⁻¹ s⁻¹.

— patent US20160024487
